# From the DeepSol protein solubility set
# Test: soluble on expression in E. coli; label from the status in PepcDB or PDB records
row,Sequence,soluble on expression in E. coli
1,MSLCAREPRVPADRLVAEMVPPPRFDSVRFGTYVPDPNQPSQSEAVRVLEDFAGGLGEAPGTGGGRRGFFGLGRGRAPKTPAGPRGVYLDGGYGVGKTHLLASLWHATPAEPSRKAFGTFVELTNLVGALGFQQTVQTLSGHRLLCIDEFELDDPGDTVLVSSLLARLVEAGVALAATSNTLPGKLGEGRFAAADFLREIQGLSAHFRALRIDGEDYRHRGLPEAPAPYSDEQVTRAARATEGASLDDFAALLDHLARVHPSRYGALTDGLTAVCLTGVHPVPDQSTALRLVVLADRLYDREVPVLASGLPFDRLFGEEMLKGGYRKKYFRAISRLTALARDAARLVDTAAAALEHHHHHH,not soluble
2,MSLCGIAGWVSFERDLSTQRAVAETMTKTMALRGPDDEGLWLDRRAALGHRRLSIIDLEGGRQPMTADEDGRTLACLVYTGEVYNFRELRLELQGLGHAFRTRSDTEVVLRAYLQWGEAMLERLNGMYAFALWDAREQRLLLVRDRMGVKPLYYYPMPDGVLFGSEPKAILAHPEAERRVTAGGLREMLDLVKTPEAAAFAGMHEVRPGQVVTIDRGGLRKRRYWQLEAREHTDDLPTTIRTVRELLDDIVERQIIADVPLCTLLSGGLDSSVVTALAARSMRRQGKGTVRSFSVDFVKHGAAFEADYLRGSPDAPFVRDLAAHAGTEHREILLESRELADPRLRAAVLGAQDLPPAYWGDMLPSLYKLFEAIRAQSTVALSGESADEVFGGYRWFHDAAAVDGDAFPWLAGSSGAFFDGQSLIAPGLLRELDMPGFRRDSYAQALAEVPRLASDSTRERRMREISHMHLTRFVQALLDRKDRMSMAVGLEVRVPFCDHRLVEYVFNAPWSMKNFDGREKSLLRAAGKDVLPESIVRRVKSPYPATQDPAYEQALRQGLARVLDDSRSPALPLLDKAAAWKLLDRPFGKTSTSPERAGLEMALGLDEWLRHHQVSLDLEGHHHHHH,not soluble
3,MSLCRWAAYHGTPIFLEDVISRPGHSLIAQSAHAEECKTATNGDGFGVAWYDARPEPGLYRDVYPAWSDPNLRAVAHHVRSGLFLSHVRASTGSCISRNNCHPFAARRWCFMHNGQVGGFEAFRKQADMAIADEFYTYRKGSTDSEVLFLLALSEGLEHDPHGALARAIARLEGLSRAHGTTPHMRLSAAFSDGQTLYAARYSSDHIAPSVYYRYSHARQGWAVVSEPLETDEGDWTELRPGRMLTIGAEGAAERDFAPADLGRAAEGHHHHHH,soluble
4,MSLDASQGGEQQSFSWDNATVYFAITDRFHDGNPSNNQSYGRPQEDAWGQNIGTFHGGDLQGLTDKLNEGYFTELGINAIWITAPYEQVHGWVGGGSDGDFAHYAYHGYYALDYTMIDQNMGTVEDMREFVHTAHEQGIRVVLDVVMNHPGYNTIKDMHEYGFGNPGVSEHWTPGQGQNWHDVHQQINYEDAGAWRHWWGPWIRAGIAGYESCGNSEITMCLAGLPDFRTELTHSVGLPPLLETKWNQERQGGYEDWIVPAANDLRRDLGVAPADYIVKWLSAWVEEFGIDGFRVDTAKHVELSRWQQLKDAANEALWKWREENPEAPGANWTDDFWMVGEVWGHGVGRSEYFDHGFDSVINFTFQGEHGNGPAYRLDTMESTFSRYANAINTDSTFNVLSYLSQHDTQLYPRERLIDGGTYLMLLPGGVQVFYGDETARPFGPTGSDPHQGTRSSMNWDSVNEEVLHHWQKMGQFRSNHLAVGAGEHRQIAASPYTFSRTYVEGDVDDRVVVVVGASGETTIDVSSVFSDGQQVRDFYTGNVTVVENGHVTFPAHRNGVILIERAGDEGHHHHHH,soluble
5,MSLDCFAPAVLGMPAFDRHATWQAMHATTHFIGRVGVAQVGLCAMNLALWDIQLKIEEVPLWRHLGPVKDRVKAYNTDGGWLTWTTAEVIDDMHHIINRGFDAVKMKLGRSDPMEDFQRVRAVRQAIGDDIKLMVDVNTVWDLETAIQWGKRLEELNVEWLEEPLHPFDVRSHAALAKAIRTPIAVGETVYTVYGFREYIAQEAAGVLQADVTKLSGIEEWLEVAAIGQTHGLQVIPHTNVQQNVHVQLAAATTNTPMIECCYESLFEIWENPVRVVDGFYTLPDVPGINGKLTETVLEKFRVSEGHHHHHH,soluble
6,MSLDDAKLTASKEAKRIVIQSIQRVATETAIENSVTVFHIESDEIKGRIIGREGRNIRALEAATGVEIVVDDTPEAIVLSAFDPVRREIARLALHQLVTDGRIHPARIEEVVSKVRKQVEEEIIETGKRTTIDLGIHGLHPELIRIIGKMKYRSSYGQNLLQHARETANLCAVMASELGLNPKKAKRAGLLHDIGKVPDEEPELPHALLGMKLAEKYKEKPDICNAIGAHHDETEMTSLLAPIVQVCDAISGARPGARREIVEAYIKRLNDLEQLAMAYPGVTKTYAIQAGRELRVIVGADKIDDKQTESLSGEIAKKIQDEMTYPGQVKITVIRETRAVSFAKEGHHHHHH,not soluble
7,MSLDDLQSIRESREIRIAMSGQYSPFSFANEQNQIVGFDASISEALAQRLGVKVSIVTTPFDGIIAGLLAKKYDAIIASMTITPERLRAVDFVGPYYHAGRTIVVKEDSPINSLADLKDVTVGVTLGDAHDKWARARGNLKVKTYKGLPEMLVDLEAGRLDALVMDSVPVLVAVKETGQKVRIITPPDSDGGVEGMGIALRKNNPELKAAMQQALNDMLADGSYEKISMKWIGKDIREGHHHHHH,soluble
8,MSLDETPTIHILWINAGLSCDGDSVALTAAMQPSIEEIVLGVLPGLPKIAVHWPLIDFECGPVGGSDTFIEWFFKGERGEIDPFVLVVEGSIPNESIKPEGYWCGFGDNPETGQPITTSEWIDRLAPKALAVVAIGTCATYGGIHAMAGNPTGAMGVPDYLGWDWKSQAGIPIVCVPGCPIQPDNFSETLTYLLYQAAGAAPMIPLDDKLRPTWLFGATVHEGCDRAGYYEQGQFALTYDSPKCLVKLGCWGPVVKCNVPKRGWMNGIGGCPNVGGICIACTMPGFPDKFMPFMDEPPGAKVSSSASGAYGAVVRKLRTLTARTVDKEPKWRHTGDRITTGYREGHHHHHH,not soluble
9,MSLDGGNSLFQLRKELYSTDNKLSSIDDDLSDRNTTEDLIMLPSSANSNFSSPYTSNNKYGNTKILTETEKYSVTKLSTDLSFLPGSNGNNNTIDTHHFEGLVDTALQKALVNDLDHIYIWNYNSIQKDTPICKISLHDDYSVLSSPPICLFTSSISSTNNDTANYNNNASGNINSGKFNNGICIINKKNSQFLYFEDISTINNLYTKLSKSKAHVLDLKLKDNENITSTINCEPSGIIIATSLGRVLFITIKDSTGKPKLELKQQLIKPQNSFFFRNLDSSKEIISLKKGPIVGKGERLLYITTRGGSLQIWQLSINSKSFKRLEINIYEHVLDSLQDLYPFAHGTLAFLDSHPIYSDTSSAHLTLASISNGNEIYYLMITVILDEKTNSFQIFSIYKLNTYFTKSTVDLNHKPQLFIPNALDSIVSPTLSVYVLFNNAVVMTQISSKLDSSFPLRRKWEDIIRFNKDVEIIGSGYSTDSIYVICKDMGVLKIASHSNNNQELELVSFVKSHIDQAVYFSTITSNEGHHHHHH,soluble
10,MSLDIHCHILPEIDDGPSSLEESLVMAREAVKEGITKIIATPHHLHPSYNNKAAVVKEKVRKLNEAIQKENIPLEILPGQEVRISGDVMDGLVSGDILTLADQGKYLFVEFSSNHVSRYADKLFFQLLSQDIIPIIVHPERNHEFLKNPGLLYDLVNGGALTQITTSSLTGHLGKKIKKFTEQIIEADLTHFLASDAHNVTERTFRIREAFALVEKNYGSSKAYEFQENAELLVENQHVMGPPPQPIVKKKLLGIFEGHHHHHH,soluble
11,MSLDIIIVGSGAGGLTTASNIKKHDKNAKVTVITSDNYIAYSPCAIPYVIGEEIADFESIIMHTPEDYKAKGIDVIVEAEVLDVVSDENKIIYKKDATETELKYDNLVLATGGTPFVPPIEGVTLGGVFKVRTIEDGRKITEWAKDTKNAVVAGAGAIGIEIAFGLKELGLDVTVVEMVPQVFPRALDPDMAETVQKYLEEQGIKVILEKPVGKIIGNDKVESVLVGEETIPAEMVIMSTGVRSNIELAKRAGCEIGRWAVLTNEKMQTSIPNIYAVGDCVEVIDAITMQNTLSPFGTTAVRQGKVAAKTIANIEAEIKPVLNSMVSKIGKLEIGGTGMTETAAKMNGIEIVLGYSKALTRARYYPGGKPIYIKMVADKNTKKIIGCQIISEERVAERVDAMSVAIFNGMTVEELANQEFCYAPPVSMVIDPIVFAAEDTLDKEGHHHHHH,soluble
12,MSLDNKRIEELKEVLKSLNKIGITEELRKEALDIVKNINPIELSIAEQQLIEEGMNPQDLRHLCDIHMEVLKDELTKVKASTSKGHVLYTLIEEHDKILDFLKELEEVNSNIQKTENYDEAKDETHRLYNLAESILDAENHHQREEKVLFLEMEKREITGPTRIMKMEHDDLRAKKKELKMLSKSVDTMDFREFKSKVDEVSKYIIFNLRDHIFKENYILYPSALEAIKDKDMWDDMKRRCDEVGYCSFTFSNEGHHHHHH,soluble
13,MSLDNRFPVCINTMKLTMPKLEVYYPSIGGISDINVQKKMNNTILNLVYQMIEDQGYYKNTETTITGYFEIKNNQRGILSLTLSNYAFSGGAHGMTIMKSLTFNVETGEEYSLSQLFKPGSNYVKVLSELIKVQIRERDIPVIEEFCAIKPNQDFYIADKILVLYFQLYELVPYAYGFPQFPISVYTIQDIINEDGPLGRMLYEGHHHHHH,soluble
14,MSLDQPLTFYGLKSMSGAFASYGKYADMGSRLAIAEHPQLLGHPLKYKVIDTEGNAGKAVRKVQEAIGQDGARFFQGCTLSSSALAVSKEIHKAGGVFMTPVGADEITGKDCNASTFRWSVPTYGAIRETLVPMSRQLPQAKRWYTITPQYVFGDALLDNARKVFAELGVEHIGNSYHSLQEQEFSGYLTNAIAAKPDVLVLLNFGSQASNALRQAVNFGIKDRMKVLMVWSAGLDQFQELGSDVLEGVYLGAQYWHQVDTPLNKLLVAATRKAYGINPNYPLAADYIGTKVMLEAIVKAGSLDGAAVSAALQGMRFQGPTGEELIRPGDHQVLKDYYLLRGKPQGQMRDEDDLAEVISSGRSFVEVDHTGCALAEGHHHHHH,soluble
15,MSLDRVEVLGVEFVEFTADQTEAEALGSLLGAMGFRAVASHREKAVTLWRQGCDHRGINVVINTEQKGFAHSSYLVHGASAYAIGLKVPDASAAVERARALGAEIFLPESGEGEGAMAAIRGMGGGLIYFVDEIDDVWSREFVAPGDDRQPAATLVAIDHVAQSMKEEQLPSWLLFYTSILDADKLAQVDIVDPAGLVRSQVVENASGTLRLTLNGADNHREGHHHHHH,not soluble
16,MSLDSKRYTFLLGPGQSCRTATDNFIALYDKRNSLEIKDIENAFNVEALSKEFFGKYKAQYEAFVNYMVDPTNGMRQHFIDTGFDHTGMAADKIRDREEKPIRDYVKKLLGRIVFLHFLQKKGWLGVPASKEWGEGDRDFMLNIFKNANERQKENFLDDILEDLFTEGLDRNRSDQGDLYDTKVEGFRNCRIPYLNGGLFERDILDKKPSHFPASYFNGLLTMLSQYNFTIDENDPNDAEVGVDPEMLGRIFENLLEDNKDKGAFYTPKEIVQYMCRESLIAYLQTDMREEDKECIRQFVTTHDASQLGELKEYIDQKLYDVKICDPAIGSGAFPMGLLRELFFCRSAIEPNIVENAANIKRHIIQNNIYGVDIERGAVDIARLRFWLSLIVDEKSPEALPNLDFKIMQGNSLLEQYKGVDLSTEGHHHHHH,not soluble
17,MSLDVCRGMLCGFGAVCEPSVEDPGRASCVCKKNVCPAMVAPVCGSDASTYSNECELQRAQCNQQRRIRLLRQGPCGSRDPCANVTCSFGSTCVPSADGQTASCLCPTTCFGAPDGTVCGSDGVDYPSECQLLRHACANQEHIFKKFDGPCDPCQGSMSDLNHICRVNPRTRHPEMLLRPENCPAQHTPICGDDGVTYENDCVMSRIGAARGLLLQKVRSGQCQTRDQCPETCQFNSVCLSRRGRPHCSCDRVTCDGAYRPVCAQDGHTYDNDCWRQQAECRQQQTIPPKHQGPCDQTPSPCRGAQCAFGATCTVKNGKAVCECQRVCSGGYDPVCGSDGVTYGSVCELESMACTLGREIRVARRGPCDRCGQCRFGSLCEVETGRCVCPSECVESAQPVCGSDGHTYASECELHVHACTHQISLYVASAGHCQTCGETVCTFEGHHHHHH,not soluble
